First the molecules themselves.
B1: FLAG-tagged EIF4G2 WT [human] / HADHB [human (endogenous in HEK293T)] (parent complex)
chain 1: MESAIAEGGASRFSASSGGGGSRGAPQHYPKTAGNSEFLGKTPGQNAQKWIPARSTRRDDNSAANNSANEKERHDAIFRKVRGILNKLTPEKFDKLCLELLNVGVESKLILKGVILLIVDKALEEPKYSSLYAQLCLRLAEDAPNFDGPAAEGQPGQKQSTTFRRLLISKLQDEFENRTRNVDVYDKRENPLLPEEEEQRAIAKIKMLGNIKFIGELGKLDLIHESILHKCIKTLLEKKKRVQLKDMGEDLECLCQIMRTVGPRLDHERAKSLMDQYFARMCSLMLSKELPARIRFLLQDTVELREHHWVPRKAFLDNGPKTINQIRQDAVKDLGVFIPAPMAQGMRSDFFLEGPFMPPRMKMDRDPLGGLADMFGQMPGSGIGTGPGVIQDRFSPTMGRHRSNQLFNGHGGHIMPPTQSQFGEMGGKFMKSQGLSQLYHNQSQGLLSQLQGQSKDMPPRFSKKGQLNADEISLRPAQSFLMNKNQVPKLQPQITMIPPSAQPPRTQTPPLGQTPQLGLKTNPPLIQEKPAKTSKKPPPSKEELLKLTETVVTEYLNSGNANEAVNGVREMRAPKHFLPEMLSKVIILSLDRSDEDKEKASSLISLLKQEGIATSDNFMQAFLNVLDQCPKLEVDIPLVKSYLAQFAARAIISELVSISELAQPLESGTHFPLFLLCLQQLAKLQDREWLTELFQQSKVNMQKMLPEIDQNKDRMLEILEGKGLSFLFPLLKLEKELLKQIKLDPSPQTIYKWIKDNISPKLHVDKGFVNILMTSFLQYISSEVNPPSDETDSSSAPSKEQLEQEKQLLLSFKPVMQKFLHDHVDLQVSALYALQVHCYNSNFPKGMLLRFFVHFYDMEIIEEEAFLAWKEDITQEFPGKGKALFQVNQWLTWLETAEEEESEEEAD
chain 2: AAPAVQTKTKKTLAKPNIRNVVVVDGVRTPFLLSGTSYKDLMPHDLARAALTGLLHRTSVPKEVVDYIIFGTVIQEVKTSNVAREAALGAGFSDKTPAHTVTMACISANQAMTTGVGLIASGQCDVIVAGGVELMSDVPIRHSRKMRKLMLDLNKAKSMGQRLSLISKFRFNFLAPELPAVSEFSTSETMGHSADRLAAAFAVSRLEQDEYALRSHSLAKKAQDEGLLSDVVPFKVPGKDTVTKDNGIRPSSLEQMAKLKPAFIKPYGTVTAANSSFLTDGASAMLIMAEEKALAMGYKPKAYLRDFMYVSQDPKDQLLLGPTYATPKVLEKAGLTMNDIDAFEFHEAFSGQILANFKAMDSDWFAENYMGRKTKVGLPPLEKFNNWGGSLSLGHPFGATGCRLVMAAANRLRKEGGQYGLVAACAAGGQGHAMIVEAYPK
B2: FLAG-tagged EIF4G2 WT [human] / EIF4A2 [human (endogenous in HEK293T)] (parent complex)
chain 1: B1 chain 1
chain 2: MSGGSADYNREHGGPEGMDPDGVIESNWNEIVDNFDDMNLKESLLRGIYAYGFEKPSAIQQRAIIPCIKGYDVIAQAQSGTGKTATFAISILQQLEIEFKETQALVLAPTRELAQQIQKVILALGDYMGATCHACIGGTNVRNEMQKLQAEAPHIVVGTPGRVFDMLNRRYLSPKWIKMFVLDEADEMLSRGFKDQIYEIFQKLNTSIQVVLLSATMPTDVLEVTKKFMRDPIRILVKKEELTLEGIKQFYINVEREEWKLDTLCDLYETLTITQAVIFLNTRRKVDWLTEKMHARDFTVSALHGDMDQKERDVIMREFRSGSSRVLITTDLLARGIDVQQVSLVINYDLPTNRENYIHRIGRGGRFGRKGVAINFVTEEDKRILRDIETFYNTTVEEMPMNVADLI
B3: FLAG-tagged EIF4G2 WT [human] / PRRC2C [human (endogenous in HEK293T)] (parent complex)
chain 1: B1 chain 1
chain 2: MSEKSGQSTKAKDGKKYATLSLFNTYKGKSLETQKTTARHGLQSLGKVGISRRMPPPANLPSLKAENKGNDPNVNIVPKDGTGWASKQEQHEEEKTPEVPPAQPKPGVAAPPEVAPAPKSWASNKQGGQGDGIQVNSQFQQEFPSLQAAGDQEKKEKETNDDNYGPGPSLRPPNVACWRDGGKAAGSPSSSDQDEKLPGQDESTAGTSEQNDILKVVEKRIACGPPQAKLNGQQAALASQYRAMMPPYMFQQYPRMTYPPLHGPMRFPPSLSETNKGLRGRGPPPSWASEPERPSILSASELKELDKFDNLDAEADEGWAGAQMEVDYTEQLNFSDDDEQGSNSPKENNSEDQGSKASENNENKKETDEVSNTKSSSQIPAQPSVAKVPYGKGPSFNQERGTSSHLPPPPKLLAQQHPPPDRQAVPGRPGPFPSKQQVADEDEIWKQRRRQQSEISAAVERARKRREEEERRMEEQRKAACAEKLKRLDEKLGILEKQPSPEEIREREREKEREREKELEKEQEQEREKEREKDRERQQEKEKELEKEQEKQREMEKERKQEKEKELERQKEKEKELQKMKEQEKECELEKEREKLEEKIEPREPNLEPMVEKQESENSCNKEEEPVFTRQDSNRSEKEATPVVHETEPESGSQPRPAVLSGYFKQFQKSLPPRFQRQQEQMKQQQWQQQQQQGVLPQTVPSQPSSSTVPPPPHRPLYQPMQPHPQHLASMGFDPRWLMMQSYMDPRMMSGRPAMDIPPIHPGMIPPKPLMRRDQMEGSPNSSESFEHIARSARDHAISLSEPRMLWGSDPYPHAEPQQATTPKATEEPEDVRSEAALDQEQITAAYSVEHNQLEAHPKADFIRESSEAQVQKFLSRSVEDVRPHHTDANNQSACFEAPDQKTLSAPQEERISAVESQPSRKRSVSHGSNHTQKPDEQRSEPSAGIPKVTSRCIDSKEPIERPEEKPKKEGFIRSSEGPKPEKVYKSKSETRWGPRPSSNRREEVNDRPVRRSGPIKKPVLRDMKEEREQRKEKEGEKAEKVTEKVVVKPEKTEKKDLPPPPPPPQPPAPIQPQSVPPPIQPEAEKFPSTETATLAQKPSQDTEKPLEPVSTVQVEPAVKTVNQQTMAAPVVKEEKQPEKVISKDLVIERPRPDSRPAVKKESTLPPRTYWKEARERDWFPDQGYRGRGRGEYYSRGRSYRGSYGGRGRGGRGHTRDYPQYRDNKPRAEHIPSGPLRQREESETRSESSDFEVVPKRRRQRGSETDTDSEIHESASDKDSLSKGKLPKREERPENKKPVKPHSSFKPDNHVRIDNRLLEKPYVRDDDKAKPGFLPKGEPTRRGRGGTFRRGGRDPGGRPSRPSTLRRPAYRDNQWNPRQSEVPKPEDGEPPRRHEQFIPIAADKRPPKFERKFDPARERPRRQRPTRPPRQDKPPRFRRLREREAASKSNEVVAVPTNGTVNNVAQEPVNTLGDISGNKTPDLSNQNSSDQANEEWETASESSDFNERRERDEKKNADLNAQTVVKVGENVLPPKREIAKRSFSSQRPVDRQNRRGNNGPPKSGRNFSGPRNERRSGPPSKSGKRGPFDDQPAGTTGVDLINGSSAHHQEGVPNGTGQKNSKDSTGKKREDPKPGPKKPKEKVDALSQFDLNNYASVVIIDDHPEVTVIEDPQSNLNDDGFTEVVSKKQQKRLQDEERRKKEEQVIQVWNKKNANEKGRSQTSKLPPRFAKKQATGIQQAQSSASVPPLASAPLPPSTSASVPASTSAPLPATLTPVPASTSAPVPASTLAPVLASTSAPVPASPLAPVSASASVSASVPASTSAAAITSSSAPASAPAPTPILASVSTPASVTILASASIPILASALASTSAPTPAPAASSPAAPVITAPTIPASAPTASVPLAPASASAPAPAPTPVSAPNPAPPAPAQTQAQTHKPVQNPLQTTSQSSKQPPPSIRLPSAQTPNGTDYVASGKSIQTPQSHGTLTAELWDNKVAPPAVLNDISKKLGPISPPQPPSVSAWNKPLTSFGSAPSSEGAKNGQESGLEIGTDTIQFGAPASNGNENEVVPVLSEKSADKIPEPKEQRQKQPRAGPIKAQKLPDLSPVENKEHKPGPIGKERSLKNRKVKDAQQVEPEGQEKPSPATVRSTDPVTTKETKAVSEMSTEIGTMISVSSAEYGTNAKESVTDYTTPSSSLPNTVATNNTKMEDTLVNNVPLPNTLPLPKRETIQQSSSLTSVPPTTFSLTFKMESARKAWENSPNVREKGSPVTSTAPPIATGVSSSASGPSTANYNSFSSASMPQIPVASVTPTASLSGAGTYTTSSLSTKSTTTSDPPNICKVKPQQLQTSSLPSASHFSQLSCMPSLIAQQQQNPQVYVSQSAAAQIPAFYMDTSHLFNTQHARLAPPSLAQQQGFQPGLSQPTSVQQIPIPIYAPLQGQHQAQLSLGAGPAVSQAQELFSSSLQPYRSQPAFMQSSLSQPSVVLSGTAIHNFPTVQHQELAKAQSGLAFQQTSNTQPIPILYEHQLGQASGLGGSQLIDTHLLQARANLTQASNLYSGQVQQPGQTNFYNTAQSPSALQQVTVPLPASQLSLPNFGSTGQPLIALPQTLQPPLQHTTPQAQAQSLSRPAQVSQPFRGLIPAGTQHSMIATTGKMSEMELKAFGSGIDIKPGTPPIAGRSTTPTSSPFRATSTSPNSQSSKMNSIVYQKQFQSAPATVRMTQPFPTQFAPQILSQPNLVPPLVRAPHTNTFPAPVQRPPMALASQMPPPLTTGLMSHARLPHVARGPCGSLSGVRGNQAQAALKAEQDMKAKQRAEVLQSTQRFFSEQQQSKQIGGGKAQKVDSDSSKPPETLTDPPGVCQEKVEEKPPPAPSIATKPVRTGPIKPQAIKTEETKS

Variants of B1 are the subject of the first experiment. Nature of the experiment: co-immunoprecipitation followed by mass spectrometry; FLAG-tagged EIF4G2 transfected into HEK293T cells; corrected for EIF4G2 levels in IP; read off a plot.
Regarding chain 1 R178Q, the ratio to parent was about 4.9.

Variants of B2 are the subject of another experiment. The description is as above.
Take chain 1 R178Q: the ratio to parent is about 5.6.

In another experiment the parent is B3. The description is as above.
On to chain 1 R165C, for which the ratio to parent is about 2.4.
With chain 1 N785K, the ratio to parent was about 1.6.

These data come from publication PMC10746786 (2023).
